Results reported in the supplement of paper PMC9732359.
± gives the uncertainty stated by the source.

Assay: protein stability index of a GFP-peptide fusion (yeast GPS) (PSI 1-4); higher = more stable; sorted into four equal gates, so the index is relative within each strain
Outline: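 Tiled 17-residue yeast protein peptides were fused downstream of GFP in a plasmid that also expresses Cherry, and the pooled library was carried in yeast. Mid-log cultures in leucine-free medium were sorted into four equal gates by GFP/Cherry fluorescence ratio, and plasmids from each gate were PCR-amplified and Illumina-sequenced, with reads assigned to strains by barcodes. The protein stability index for each peptide was each gate's read frequency times its gate number, summed.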

Row | Sequence | protein stability index (doa10∆) | protein stability index (pdr5∆) | protein stability index (san1∆) | protein stability index (ubr1∆)
1 | SYHLWPSFTDEQWITIE [PRP8] | 2.44 ± 0.089 | 2.66 ± 0.061 | 2.82 ± 0.09 | 2.57 ± 0.057
2 | AIITDDLDTVLKKDIES [SRP72] | 1.99 ± 0.047 | 2.32 ± 0.047 | 2.43 ± 0.061 | 2.43 ± 0.049
3 | QRKTNGASNGDDSNGGN [BRN1] | 3.12 ± 0.14 | 2.92 ± 0.23 | 3.71 ± 0.17 | 3.64 ± 0.15
4 | ITVVPVVAAAEDDDNEQ [QCR6] | 1.61 ± 0.068 | 2.04 ± 0.064 | 1.72 ± 0.12 | 1.89 ± 0.036
5 | MEERDGAKFENIVHNFK [AAR2] | 3.09 ± 0.1 | 2.51 ± 0.097 | 2.41 ± 0.12 | 1.88 ± 0.056
6 | GRLLRAMFEICLKRGWG [BRR2] | 1.75 ± 0.11 | 1.59 ± 0.091 | 1.76 ± 0.12 | 1.81 ± 0.077
7 | LKYLDDLKAQFQELDSK [RPN9] | 3.13 ± 0.097 | 3.23 ± 0.069 | 3.12 ± 0.075 | 3.2 ± 0.064
8 | RNFDTHENYIQDDDFPL [MCD1] | 2.92 ± 0.06 | 2.8 ± 0.053 | 2.85 ± 0.048 | 2.91 ± 0.045
9 | SYLISHKDSFYDRATLT [RPO31] | 2.43 ± 0.073 | 2.6 ± 0.067 | 2.21 ± 0.065 | 2.35 ± 0.072
10 | GKMVRAQDVALAKKWFL [PRP8] | 2.34 ± 0.12 | 2.51 ± 0.14 | 2.57 ± 0.23 | 3.05 ± 0.24
11 | ISLYFNDILDELLCGMA [ECM29] | 1.64 ± 0.1 | 1.81 ± 0.069 | 2.04 ± 0.18 | 1.48 ± 0.06
12 | NGMFCQVPSSLIVRAKN [RRP4] | 2.07 ± 0.064 | 2.5 ± 0.12 | 2.31 ± 0.092 | 2.27 ± 0.082
13 | EITGTSCLTFFQALDSE [ITC1] | 2.46 ± 0.086 | 2.78 ± 0.099 | 2.42 ± 0.1 | 1.82 ± 0.057
14 | ENNSDSNSNNNGNKDSS [SWI1] | 2.95 ± 0.089 | 3.12 ± 0.076 | 3.05 ± 0.06 | 3.04 ± 0.068
15 | RAKAMKFADGFLIHSGQ [RPS3] | 3.4 ± 0.11 | 3.03 ± 0.093 | 3.13 ± 0.061 | 3.22 ± 0.037
16 | DDRYGYQLYTSNPSGNY [PRE9] | 2.88 ± 0.073 | 2.97 ± 0.081 | 3.06 ± 0.065 | 3.1 ± 0.05
17 | LIKFVDLSRNGRNGSNG [NUT1] | 3.08 ± 0.074 | 3.2 ± 0.099 | 3.15 ± 0.068 | 3.2 ± 0.069
18 | FFKPLDYITEAVFKIVL [SNU114] | 2.06 ± 0.047 | 1.95 ± 0.055 | 1.47 ± 0.073 | 1.88 ± 0.035
19 | TSFEQGEITFDGIGGLT [RPT4] | 3.1 ± 0.085 | 3.18 ± 0.074 | 3.05 ± 0.066 | 3.49 ± 0.059
20 | ARRTLQKLGLDETYKGV [RPL5] | – | 2.97 ± 0.18 | 3.43 ± 0.14 | –
21 | QRGEDDLTFKLADILKA [RPO21] | 2.34 ± 0.082 | 2.61 ± 0.1 | 2.45 ± 0.066 | 2.1 ± 0.046
22 | DGHLQFLNDVIPTTKNL [DLS1] | 2.96 ± 0.094 | 3.05 ± 0.068 | 2.8 ± 0.072 | 3.04 ± 0.073

Row | Sequence | protein stability index (doa10∆) | protein stability index (pdr5∆) | protein stability index (san1∆) | protein stability index (ubr1∆)
23 | SFTYELKQHNQNNLPPN [BRR2] | 2.95 ± 0.094 | 3.21 ± 0.087 | 2.78 ± 0.1 | 2.9 ± 0.12
24 | LQEKFLNQIATLKIHLK [IRR1] | 1.22 ± 0.12 | 1.4 ± 0.11 | – | 1.03 ± 0.093
25 | ESMDFLVLADAFDIELS [YCS4] | 2.32 ± 0.039 | 2.82 ± 0.043 | 2.64 ± 0.055 | 2.64 ± 0.039
26 | SAAELERLDKDKDRDTR [SNF5] | 1.76 ± 0.087 | 1.46 ± 0.14 | 1.9 ± 0.12 | 2.95 ± 0.11
27 | VKEEKEDMETQASDPSK [RPC53] | 3.27 ± 0.14 | 3.41 ± 0.2 | 3.2 ± 0.17 | 3.31 ± 0.15
28 | VNNCIWALKSSLNSMTN [RGR1] | 2.71 ± 0.1 | 2.39 ± 0.22 | – | 2.37 ± 0.16
29 | EGVEYSFLHVDDKLAYI [POP8] | 1.86 ± 0.097 | 2.1 ± 0.088 | 1.86 ± 0.11 | 2.04 ± 0.074
30 | LNTKSIQIDEETENSES [MCD1] | 2.16 ± 0.096 | 2.52 ± 0.11 | 2.87 ± 0.1 | 2.92 ± 0.1
31 | VTYSDVGGCKDQIEKLR [RPT1] | 3.51 ± 0.16 | 3.67 ± 0.2 | 2.92 ± 0.25 | 3.39 ± 0.12
32 | TDNVSMYPSPTGVMIGI [PRP8] | 2.65 ± 0.065 | 2.41 ± 0.063 | 2.02 ± 0.086 | 2.3 ± 0.041
33 | RTVAGFSNVELPQCIIP [ARP7] | 2.8 ± 0.05 | 2.76 ± 0.054 | 2.56 ± 0.051 | 2.7 ± 0.034
34 | ARWPAKSVKFVQGLLQN [RPL17A] | 2.35 ± 0.097 | 2.17 ± 0.083 | 1.89 ± 0.088 | 2.13 ± 0.073
35 | KLEPKEIVRDILHTKES [SIR4] | 2.92 ± 0.1 | 3.1 ± 0.14 | 2.5 ± 0.18 | 3.04 ± 0.086
36 | KNLKDTASVEKAEFSKE [YIL149C/MLP2] | 3.07 ± 0.083 | 3.19 ± 0.091 | 3.09 ± 0.1 | 3.24 ± 0.081
37 | NEETFTVPELEIPTQIY [ARP9] | 2.7 ± 0.065 | 2.77 ± 0.059 | 2.48 ± 0.064 | 2.92 ± 0.063
38 | KEALQNNIFKEFTSKIG [SMC1] | 2.22 ± 0.064 | 2.3 ± 0.082 | 2.52 ± 0.11 | 2.24 ± 0.073
39 | FDLVRNIVKQNEGIDLD [SMC2] | 3.11 ± 0.13 | 3.51 ± 0.12 | 3.24 ± 0.081 | 3.45 ± 0.1
40 | DWEKYKAPLEDDDKKPD [RPT1] | 3.16 ± 0.12 | 3.56 ± 0.19 | 2.96 ± 0.21 | 3.31 ± 0.16
41 | LVSNPHEIYGSMPLEQL [SRB4] | 3.01 ± 0.12 | 2.26 ± 0.065 | 3.1 ± 0.19 | 1.89 ± 0.1
42 | PDAQNELPKFILSDSPL [DIS3] | 2.87 ± 0.048 | 3.03 ± 0.063 | 2.87 ± 0.044 | 2.92 ± 0.079
43 | PQGFSSVERGRKRAHSL [REC8] | 3.38 ± 0.11 | 3.4 ± 0.12 | 3.36 ± 0.048 | 3.19 ± 0.067
